One may read the stoichiometry N as the number of molecules, sites or subunits per partner or assembly.

Assay in all cases: SEC
For assay [1], the target named is globular N-terminal domain of human apolipoprotein A-I (residue fragment 1–184), Phe71Tyr (human).
Assay [2] has as its target globular N-terminal domain of human apolipoprotein A-I (residue fragment 1–184), Glu34Lys (human).
The target of assay [3] is globular N-terminal domain of human apolipoprotein A-I (residue fragment 1–184), wild type (human).
Assay [4] concerns the target globular N-terminal domain of human apolipoprotein A-I (residue fragment 1–184), Leu159Arg (human).

For “globular N-terminal domain of human apolipoprotein A-I (residue fragment 1–184), Phe71Tyr (domain or fragment)”, the stoichiometry N in assay [1] was 2. With “globular N-terminal domain of human apolipoprotein A-I (residue fragment 1–184), Glu34Lys (domain or fragment)”, the stoichiometry N in assay [2] amounted to 2. “globular N-terminal domain of human apolipoprotein A-I (residue fragment 1–184), wild type (domain or fragment)” gave a stoichiometry N in assay [3] of 2.

For the substance “globular N-terminal domain of human apolipoprotein A-I (residue fragment 1–184), Leu159Arg (domain or fragment)”, in assay [4], the stoichiometry N is 2.
